Paper PMC2139591

Target: NGF-specific-receptor-like molecule (NSR) from C 1300 neuroblastoma cells (mouse (endogenous in C 1300 NB cells))
Assay: radioligand binding

Ka: 1e+07 M⁻¹
Substance: nerve growth factor (NGF), mouse salivary glands (from UniProt P01139 122-241) (ligand)
